Holding throughout (test): cell-based or functional assay
One assay deals with human GLP-1 receptor (human, UniProt P43220 24-463).
The next assay concerns the target human GCG receptor (human, UniProt P47871 26-477).
The next assay addresses T1, human GIP receptor (human, UniProt P48546 22-466).
T1 sequence (looked up): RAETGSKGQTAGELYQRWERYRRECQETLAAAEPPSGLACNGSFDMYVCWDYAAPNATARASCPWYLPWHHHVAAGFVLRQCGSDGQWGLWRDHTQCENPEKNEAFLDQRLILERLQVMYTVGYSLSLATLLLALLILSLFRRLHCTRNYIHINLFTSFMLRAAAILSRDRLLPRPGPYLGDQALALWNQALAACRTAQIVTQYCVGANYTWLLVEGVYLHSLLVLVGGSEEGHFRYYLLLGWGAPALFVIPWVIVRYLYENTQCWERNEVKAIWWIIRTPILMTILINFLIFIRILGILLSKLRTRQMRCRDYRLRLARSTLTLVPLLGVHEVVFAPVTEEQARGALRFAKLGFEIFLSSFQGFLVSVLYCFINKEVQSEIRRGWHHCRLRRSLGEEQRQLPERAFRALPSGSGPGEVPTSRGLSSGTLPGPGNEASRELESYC

Positions of bridges follow the written chain, without caps; N, C: chain ends. Non-standard residues stand in square brackets, D forms with d. No end group written: not given here. *: point of attachment. Acetyl(2-(4-imidazolyl)) = O=C(Cc1c[nH]cn1)*; Aib = CC(C)(N)C(=O)O Some results are limits rather than exact numbers.

Sequence of human GCG receptor (P47871 26-477): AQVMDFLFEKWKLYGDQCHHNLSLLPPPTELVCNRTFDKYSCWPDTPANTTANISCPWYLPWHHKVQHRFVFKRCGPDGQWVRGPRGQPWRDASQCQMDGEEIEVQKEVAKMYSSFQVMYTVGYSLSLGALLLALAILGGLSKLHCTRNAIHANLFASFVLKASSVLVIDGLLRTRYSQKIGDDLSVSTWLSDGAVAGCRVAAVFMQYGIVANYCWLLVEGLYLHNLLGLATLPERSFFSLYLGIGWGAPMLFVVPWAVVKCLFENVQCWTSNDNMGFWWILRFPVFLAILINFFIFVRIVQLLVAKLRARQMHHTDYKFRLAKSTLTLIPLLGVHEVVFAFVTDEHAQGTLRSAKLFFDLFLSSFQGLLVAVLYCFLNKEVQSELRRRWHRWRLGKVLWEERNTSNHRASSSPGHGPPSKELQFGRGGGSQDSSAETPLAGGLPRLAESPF

For the molecule [Acetyl(2-(4-imidazolyl))]GEGTFTSDLSKYLDSRRQQLFVQWLKAGGPSSGAPPPSHG [triple agonist of SEQ ID NO: 11], the “In vitro Activity Compared to Native Peptide (%) vs. GLP-1” value with human GLP-1 receptor was 1.4%. In addition, in the assay with human GCG receptor, the “In vitro Activity Compared to Native Peptide (%) vs. Glucagon” value was less than 0.1%. Besides, the “In vitro Activity Compared to Native Peptide (%) vs. GIP” value with human GIP receptor is less than 0.1%.
For H[Aib]QGTFTSDVSSYLDGQAQKEFIAWLVKGC [triple agonist of SEQ ID NO: 2], the “In vitro Activity Compared to Native Peptide (%) vs. GLP-1” value with human GLP-1 receptor came out at 5.9%. The “In vitro Activity Compared to Native Peptide (%) vs. Glucagon” value with human GCG receptor was less than 0.1%. The “In vitro Activity Compared to Native Peptide (%) vs. GIP” value in the assay with human GIP receptor was less than 0.1%.
Turning to Y[Aib]QGTFTSDYSKALDEKAAKEFVNWLLDQHPSSGQPPPSC (bridge 16-20) [triple agonist of SEQ ID NO: 101], the “In vitro Activity Compared to Native Peptide (%) vs. GLP-1” value in the assay with human GLP-1 receptor was 23.2%. Also, the “In vitro Activity Compared to Native Peptide (%) vs. Glucagon” value with human GCG receptor turned out to be 13.9%. Further, the “In vitro Activity Compared to Native Peptide (%) vs. GIP” value with human GIP receptor was 40.1%.
On the same counts, the results for [Acetyl(2-(4-imidazolyl))]GQGTFTSDLSKQMDSEAQQLFIEWLKNGGPSSGAPPPSHG [triple agonist of SEQ ID NO: 16] are 2.1%, less than 0.1% and less than 0.1%.
On the same counts, the results for [Acetyl(2-(4-imidazolyl))]GQGTFTSDYSIQLDEIAVRDFVEWLKNGGPSSGAPPPSHG [triple agonist of SEQ ID NO: 14] are 28%, less than 0.1% and less than 0.1%.
The corresponding values for Y[Aib]QGTFTSDYSKALDEKAAKEFVNWLLDHHPSSGQPPPSC (bridge 16-20) [triple agonist of SEQ ID NO: 98] are 28.1%, 8.2% and 47.1%.
On to [Acetyl(2-(4-imidazolyl))]GEGTFISDLSKYMDEQAVQLFVEWLMAGGPSSGAPPPSHG [triple agonist of SEQ ID NO: 12], for which the “In vitro Activity Compared to Native Peptide (%) vs. GLP-1” value in the assay with human GLP-1 receptor amounted to 0.4%. In addition, in the assay with human GCG receptor, the “In vitro Activity Compared to Native Peptide (%) vs. Glucagon” value is less than 0.1%. In addition, the “In vitro Activity Compared to Native Peptide (%) vs. GIP” value with human GIP receptor was less than 0.1%.
On to [Acetyl(2-(4-imidazolyl))]GEGTFISDYSIQLDEIAVQDFVEWLLAQKPSSGAPPPSHG [triple agonist of SEQ ID NO: 13], for which the “In vitro Activity Compared to Native Peptide (%) vs. GLP-1” value with human GLP-1 receptor is less than 0.1%. Besides, the “In vitro Activity Compared to Native Peptide (%) vs. Glucagon” value with human GCG receptor was less than 0.1%. Also, the “In vitro Activity Compared to Native Peptide (%) vs. GIP” value with human GIP receptor is less than 0.1%.
Turning to Y[Aib]QGTFTSDYSKALDEKAAKDFVNWLLDHHPSSGQPPPSC (bridge 16-20) [triple agonist of SEQ ID NO: 99], the “In vitro Activity Compared to Native Peptide (%) vs. GLP-1” value with human GLP-1 receptor worked out at 20.9%. The “In vitro Activity Compared to Native Peptide (%) vs. Glucagon” value in the assay with human GCG receptor was 14.9%. Also, the “In vitro Activity Compared to Native Peptide (%) vs. GIP” value with human GIP receptor was 57.7%.
Take Y[Aib]QGTFTSDYSKALDEKAAKDFVNWLLDQHPSSGQPPPSC (bridge 16-20) [triple agonist of SEQ ID NO: 102]: the “In vitro Activity Compared to Native Peptide (%) vs. GLP-1” value with human GLP-1 receptor is 23.3%. Also, in the assay with human GCG receptor, the “In vitro Activity Compared to Native Peptide (%) vs. Glucagon” value is 29.5%. In addition, the “In vitro Activity Compared to Native Peptide (%) vs. GIP” value with human GIP receptor came to 58%.
The corresponding values for Y[Aib]QGTFTSDYSKALDEKAAKEFVQWLLDQHPSSGQPPPSC (bridge 16-20) [triple agonist of SEQ ID NO: 100] are 42.2%, 12.7% and 118%.

The values are drawn from US20230118307A1, “THERAPEUTIC USE OF LONG-ACTING CONJUGATE OF TRIPLE AGONIST HAVING ACTIVITIES TO ALL OF GLUCAGON/GLP-1/GIP RECEPTORS FOR LUNG DISEASE” (HANMI PHARM. CO., LTD., priority 2020, published 2023).
